The target of assay [1] is T1, human CTLA4 (human, UniProt P16410 36-223).
T1 construct: whole, on cells; also called CD152; CHO-K1/hCTLA4
Kind of assay: flow cytometry on CHO-K1/hCTLA4 cells. As for the experimental part: (§1) The cells were incubated at 4° C. for 1 h away from light. […] Then, the cells in each well were then rinsed twice with 200 μL of pre-cooled FACS buffer and centrifuged at 500 g at 4° C. for 5 min, and then the supernatant was discarded. Finally, a pre-cooled FACS buffer was added at 200 μL/well to resuspend the cells.
For orientation: A flow cytometer gives signals particle by particle.

Assay [2] addresses T2, recombinant human BCMA-ECD-Fc fusion protein (ACRO Biosystems, #BC7-H82F0), biotinylated (human, UniProt Q02223 1-54, biotinylated with EZ-Link Sulfo-NHS-LC-Biotin (sites not given)).
T2 construct: extracellular domain; Bought protein; also called biotinylated BCMA
T2 sequence (looked up): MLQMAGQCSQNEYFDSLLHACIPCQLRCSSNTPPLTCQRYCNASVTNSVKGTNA
Kind of assay: BLI (Octet Red96e), biotinylated BCMA-ECD-Fc on SA sensor, binding protein 10-2.5 nM in solution, 1:1 global fitting. As for the experimental part:
In this example, the binding kinetics between the BCMA binding protein and BCMA were analyzed by the Biolayer Interferometry (BLI) technique using an Octet molecular interaction analyzer (ForteBio, Octet Red96e).
Two columns of SA sensors (8 sensors in each column; with the sensors in the first column referred to as the reference SA sensor and the sensors in the second column referred to as the test SA sensor) were firstly equilibrated in the equilibration buffer for 10 min. Then, the biotinylated BCMA were captured by test SA sensors with a capture height of 0.2 nm, and the reference SA sensors were immersed in the buffer for 30 s. The two arrays of sensors were combined with the test BCMA-binding protein at concentrations obtained by a two-fold dilution from 10 nM to 2.5 nM and a concentration of 0 nM. The sensors were combined with the test proteins for 180 s and then dissociated for 800 s.
When data analysis was performed using Octet Data Analysis software (Fortebio, version 11.0), the reference signals were subtracted by a double reference mode; the data were fitted by a “1:1 Global fitting” method, and the kinetic parameters of the binding of the antigen to the antigen-binding protein were calculated to obtain kₒₙ (1/Ms) values, kdis (1/s) values and KD (M) values.
(In general: BLI is a label-free optical method that tracks binding on a fibre tip over time.)

The target of assay [3] is T3, human PD-L1 (human, UniProt Q9NZQ7 19-290).
T3 construct: whole, on cells; also called CD274; B7-H1
T3 sequence (Q9NZQ7 19-290): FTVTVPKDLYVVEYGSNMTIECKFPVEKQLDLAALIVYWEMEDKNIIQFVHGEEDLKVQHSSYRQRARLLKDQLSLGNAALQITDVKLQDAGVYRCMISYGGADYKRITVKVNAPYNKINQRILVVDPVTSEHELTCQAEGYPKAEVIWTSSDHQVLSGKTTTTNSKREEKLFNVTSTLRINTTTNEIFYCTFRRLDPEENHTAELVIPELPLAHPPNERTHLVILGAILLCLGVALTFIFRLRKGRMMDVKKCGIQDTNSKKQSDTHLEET
Nature of the assay: flow cytometry on CHO-K1/hPD-L1 cells. As for the experimental part:
as §1

Assay [4] deals with T4, human 4-1BB (human, UniProt Q07011 24-255).
T4 construct: whole, on cells; also called CD137; TNFRSF9
T4 sequence (Q07011 24-255): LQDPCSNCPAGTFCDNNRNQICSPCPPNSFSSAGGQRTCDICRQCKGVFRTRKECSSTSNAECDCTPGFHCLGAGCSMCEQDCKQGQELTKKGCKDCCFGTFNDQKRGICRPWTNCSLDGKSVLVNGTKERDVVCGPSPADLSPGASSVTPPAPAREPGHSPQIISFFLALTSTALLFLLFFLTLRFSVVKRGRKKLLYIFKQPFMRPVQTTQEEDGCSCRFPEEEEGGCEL
Nature of the assay: flow cytometry on CHO-K1/hu 4-1BB cells. The method, then: Specifically, the cells were digested and resuspended in a complete medium, and the cell density was adjusted to 2×10⁶ cells/mL. […] The cells were incubated at 4° C. for 1 h away from light. […] Then, the cells in each well were then rinsed twice with 200 μL of pre-cooled FACS buffer and centrifuged at 500 g at 4° C. for 5 min, and then the supernatant was discarded. Finally, a pre-cooled FACS buffer was added at 200 μL/well to resuspend the cells.

T1 sequence (P16410 36-223): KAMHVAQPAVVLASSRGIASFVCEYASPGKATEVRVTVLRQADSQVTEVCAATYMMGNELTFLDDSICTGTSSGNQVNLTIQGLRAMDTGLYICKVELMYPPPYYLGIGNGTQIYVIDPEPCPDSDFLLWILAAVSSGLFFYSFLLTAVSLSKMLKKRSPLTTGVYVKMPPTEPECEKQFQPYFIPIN

B1: Anti-CTLA4 heavy-chain antibody CL5v3 (antibody, human IgG1, V domains shown)
VH: EVQLVESGGGLIQPGGSLRLSCAVSGFTVSKNYMSWVRQAPGKGLEWVSVVYSGGSKTYADSVKGRFTISRDNSKNTLYLQMNSLRAEDTAVYYCARAVPHSPSSFDIWGQGTMVTVSS
notes: Fully human heavy-chain-only antibody (HCAb), no light chain; also called PR000184
As to B1, the binding result in assay [1] is on record as “binds”.

B2: PR005744, BCMA×BCMA bispecific binding protein with the Fab-HCAb structure (structure 1) (bispecific antibody, human IgG1, kappa)
chain 1: QVQLVESGGGVVQPGRSLRLSCAATGFTFSSYGMYWVRQAPGKGLEWVAAIWNDGSNNYYADSVKGRFTISRDDSKNTLNLQMNSLRAEDTAMYYCARDRLPMASLRYFDWLGVMDAWGQGTSVTVSSASTKGPSVFPLAPSSKSTSGGTAALGCLVKDYFPEPVTVSWNSGALTSGVHTFPAVLQSSGLYSLSSVVTVPSSSLGTQTYICNVNHKPSNTKVDKKVEPKSC
chain 2: not shown
notes: no first linker; human IgG1 hinge and Fc
In the case of B2, in assay [2], the Kd (usually the constant that tells how readily two partners part at equilibrium) was 0.0279 nM; the off-rate (koff) (in general, the first-order rate constant of dissociation) was found to be 4.87e-05 s⁻¹; the kon (usually the second-order rate constant of association) turned out to be 1.75e+06 M⁻¹ s⁻¹.

B3: PR004268, PD-L1×4-1BB bispecific binding protein with the VH-IgG structure (structure 4) (bispecific antibody)
light: DIQMTQSPSTLSASVGDRVTVTCRASQSIYIWLAWYQQKPGKAPNLLIYKASSLETGVPSRFSGSGSGTEFTLTISSLQPDDFATYYCQQYYGSSRTFGQGTKVEIKRTVAAPSVFIFPPSDEQLKSGTASVVCLLNNFYPREAKVQWKVDNALQSGNSQESVTEQDSKDSTYSLSSTLTLSKADYEKHKVYACEVTHQGLSSPVTKSFNRGEC
heavy: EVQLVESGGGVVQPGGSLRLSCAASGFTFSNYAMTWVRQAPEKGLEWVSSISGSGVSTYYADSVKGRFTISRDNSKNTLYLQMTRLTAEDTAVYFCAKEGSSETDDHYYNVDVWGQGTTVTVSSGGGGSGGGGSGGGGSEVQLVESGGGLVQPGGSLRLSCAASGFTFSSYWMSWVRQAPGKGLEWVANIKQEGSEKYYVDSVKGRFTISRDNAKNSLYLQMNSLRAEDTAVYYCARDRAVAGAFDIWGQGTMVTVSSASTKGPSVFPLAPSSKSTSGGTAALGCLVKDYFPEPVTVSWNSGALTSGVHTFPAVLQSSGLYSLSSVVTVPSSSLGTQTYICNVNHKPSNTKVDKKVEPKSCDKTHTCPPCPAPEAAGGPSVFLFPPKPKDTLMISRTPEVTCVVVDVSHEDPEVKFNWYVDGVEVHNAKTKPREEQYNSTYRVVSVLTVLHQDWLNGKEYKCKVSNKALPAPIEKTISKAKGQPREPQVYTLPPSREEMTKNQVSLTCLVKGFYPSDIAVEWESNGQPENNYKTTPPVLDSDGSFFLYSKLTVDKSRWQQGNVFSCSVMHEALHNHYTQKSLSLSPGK
notes: 4-1BB VH (PR001760) at the N-terminus of the heavy chain of PD-L1 IgG (PR000265); linker GS_15; human IgG1 (LALA)
As for B3, the binding result in assay [3] was “binds”.

B4: PR000701, PD-L1×4-1BB bispecific binding protein with the FIT-Ig structure (structure 5) (bispecific antibody, human IgG4 S228P, kappa)
chain 1: not shown
chain 2: EVQLVESGGGLVQPGGSLRLSCAASGFTFSSYWMSWVRQAPGKGLEWVANIKQEGSEKYYVDSVKGRFTISRDNAKNSLYLQMNSLRAEDTAVYYCARDRAVAGAFDIWGQGTMVTVSSASTKGPSVFPLAPSSKSTSGGTAALGCLVKDYFPEPVTVSWNSGALTSGVHTFPAVLQSSGLYSLSSVVTVPSSSLGTQTYICNVNHKPSNTKVDKKVEPKSC
light: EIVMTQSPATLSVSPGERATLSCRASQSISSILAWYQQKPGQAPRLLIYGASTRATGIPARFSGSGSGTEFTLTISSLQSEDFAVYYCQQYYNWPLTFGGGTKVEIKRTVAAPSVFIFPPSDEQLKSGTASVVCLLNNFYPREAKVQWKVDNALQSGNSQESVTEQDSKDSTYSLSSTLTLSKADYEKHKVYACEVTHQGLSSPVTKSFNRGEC
notes: FIT-Ig, symmetric tetravalent, three different chains; PD-L1 Fab of PR000265, 4-1BB Fab of PR000197 close to Fc; human IgG4
For the molecule B4, the binding result in assay [3] and in assay [4] was “binds” in each case.

B5: Anti-BCMA heavy-chain antibody PR001046_R2_4G10 (antibody, human IgG1, V domains shown)
VH: EVQLVETGGGLIQPGGSLRLSCAASGFTVSDSYMTWVRQAPGKGLEWVSVIFSGGRTYYSDSVKGRFTISRDNAKNTLYLQMNSLRAEDTALYYCARRNYDDTRGTDVFDIWGQGTMVTVSS
notes: Fully human heavy-chain-only antibody (HCAb), bivalent, no light chain; also called PR004433
With B5, in assay [2], the Kd was 0.0792 nM, the dissociation rate constant (koff) was determined as 7.16e-05 s⁻¹ and the kon was 904000 M⁻¹ s⁻¹.

The record behind these values is patent publication US20230287143A1 (published 2023).
